Where “and” joins values, the source holds several entries; their conditions need not be identical. Equal entries are not always repeated.

For assay [1], the target named is gD-tagged wild-type ErbB2 (human) (UniProt P04626). Nature of the assay: cell-based or functional assay.
Assay [2] has as its target T1, gD-tagged wild-type ErbB2 (human, UniProt P04626 23-1255).
T1 construct: whole, on cells; Expressed in HBMECs (human endothelial cells); also called gD-ErbB2-WT; gD-ErbB2 WT
Nature of the assay: GST pull-down from HBMEC lysates, anti-gD western blot. On the technique in general: A western blot detects proteins with antibodies after separation by electrophoresis.
Method: (§1) Clarified lysates were incubated with GST fusion proteins (20-30 mg) bound to glutathione-Sepharose beads for 2 h at 4° C. Beads were washed three times with lysis buffer, and bound proteins were eluted in Laemmli sample buffer and separated by SDS-PAGE for analysis by western blotting.

Assay [3] has as its target T2, endogenous EGFR (human, UniProt P00533 25-1210).
T2 construct: whole, on cells; Endogenous receptor of HBMECs, from lysates; also called endogenous EGF receptors
Nature of the assay: GST pull-down from HBMEC lysates.
Method: as §1

“VSV-g-tagged ezrin FERM domain (from UniProt P15311 1-295)”: the ErbB2-induced cell proliferation of HBMECs in assay [1] was 85 % reduction and 70 % reduction.

B1: GST fused with the carboxy-terminal domain of ezrin (other)
chain: REEKHQKQLERQQLETEKKRRETVEREKEQMMREKEELMLRLQDYEEKTKKAERELSEQIQRALQLEEERKRAQEEAERLEADRMAALRAKEELERQAVDQIKSQEQLAAELAEYTAKIALLEEARRRKEDEVEEWQHRAKEAQDDLVKTKEELHLVMTAPPPPPPPVYEPVSYHVQESLQDEGAEPTGYSAELSSEGIRDDRNEEKRITEAEKNERVQRQLLTLSSELSQARDENKRTHNDIIHNENMRQGRDKYKTLRQIRQGNTKQRIDEFEAL
notes: also called GST-Ezrin-CT; C-terminus of ezrin; not shown: glutathione S-transferase (GST) tag
On to B1, for which the binding result in assay [2] and in assay [3] was “no binding” each time.

Values taken from patent publication US20120214744A1 (L UNIVERSITE PARIS DESCARTES, published 2012).
